Several values for one entry are separate records, joined by “and”; a condition that tells them apart may be missing. Equal entries are not always repeated.
Molecular target: SmT1v3-R, tagless resistin-trimerized SARS-CoV-2 spike ectodomain, reference strain (SARS-CoV-2 | human) (UniProt P0DTC2)
Test: SEC-MALS; UPLC-SEC on a 4.6 x 300 mm Acquity BEH450 column in PBS + 0.02% Tween-20, coupled to a miniDAWN MALS detector and Optilab T-rEX refractometer; trimer and hexamer populations by molecular weight

Substance: SmT1v3-R, tagless resistin-trimerized SARS-CoV-2 spike ectodomain, reference strain (from UniProt P0DTC2 14-1208; Q9HD89-1 23-108)
- percent of the protein as hexamer: 3%
- percent of the protein as trimer: 96%
- stoichiometry N: 3 and 6
